From paper PMC11250841

Legend:
[1] = biological target: T1, Thymic stromal lymphopoietin receptor (TSLPR) (human (endogenous in primary keratinocytes)) (UniProt Q9HC73)
T1 sequence: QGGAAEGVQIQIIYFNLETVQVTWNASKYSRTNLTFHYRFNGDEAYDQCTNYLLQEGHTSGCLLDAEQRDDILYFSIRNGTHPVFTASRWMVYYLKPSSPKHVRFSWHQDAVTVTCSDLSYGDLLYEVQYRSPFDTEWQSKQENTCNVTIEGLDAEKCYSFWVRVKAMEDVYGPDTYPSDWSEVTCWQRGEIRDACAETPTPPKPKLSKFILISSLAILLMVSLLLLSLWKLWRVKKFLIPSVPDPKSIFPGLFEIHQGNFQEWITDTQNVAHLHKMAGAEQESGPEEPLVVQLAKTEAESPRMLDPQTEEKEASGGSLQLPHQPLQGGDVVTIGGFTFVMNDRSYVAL

[2] = biological target: T1, Thymic stromal lymphopoietin receptor (TSLPR) (human (endogenous in primary keratinocytes)); remark: listed apart in the source

inhibition by the small molecule BP79 of TSLP-induced IL-4 release from HuT78 cells (ELISA, 36 h), concentration series up to 20 µM [1]: 60% | inhibition by the small molecule BP79 of TSLP-induced IL-13 release from HuT78 cells (ELISA, 36 h), concentration series up to 20 µM [1]: 80% | inhibition by the small molecule BP79 of TSLP-induced IL-4/IL-13 expression in primary human CD4+ T cells (ELISA, 36 h), dose-response, at 10 µM and 20 µM [2]: > 80%
Substance: Thymic stromal lymphopoietin (TSLP), human recombinant (from UniProt Q969D9 29-159) (ligand)
